Holding throughout (conditions): both partners purified
Assay [1] concerns the target T1, ALIX1−868∗^Strep (full-length ALIX with P801G and a C-terminal strep tag) (UniProt Q8WUM4 1-868, P801G).
T1 construct: the asterisk denotes P801G; Monomeric by AUC; source: E. coli, purified (Strep-Tactin Sepharose, Q-Sepharose HP, Superdex 200); not shown: Strep tag, C-terminal, kept
T1 sequence (looked up): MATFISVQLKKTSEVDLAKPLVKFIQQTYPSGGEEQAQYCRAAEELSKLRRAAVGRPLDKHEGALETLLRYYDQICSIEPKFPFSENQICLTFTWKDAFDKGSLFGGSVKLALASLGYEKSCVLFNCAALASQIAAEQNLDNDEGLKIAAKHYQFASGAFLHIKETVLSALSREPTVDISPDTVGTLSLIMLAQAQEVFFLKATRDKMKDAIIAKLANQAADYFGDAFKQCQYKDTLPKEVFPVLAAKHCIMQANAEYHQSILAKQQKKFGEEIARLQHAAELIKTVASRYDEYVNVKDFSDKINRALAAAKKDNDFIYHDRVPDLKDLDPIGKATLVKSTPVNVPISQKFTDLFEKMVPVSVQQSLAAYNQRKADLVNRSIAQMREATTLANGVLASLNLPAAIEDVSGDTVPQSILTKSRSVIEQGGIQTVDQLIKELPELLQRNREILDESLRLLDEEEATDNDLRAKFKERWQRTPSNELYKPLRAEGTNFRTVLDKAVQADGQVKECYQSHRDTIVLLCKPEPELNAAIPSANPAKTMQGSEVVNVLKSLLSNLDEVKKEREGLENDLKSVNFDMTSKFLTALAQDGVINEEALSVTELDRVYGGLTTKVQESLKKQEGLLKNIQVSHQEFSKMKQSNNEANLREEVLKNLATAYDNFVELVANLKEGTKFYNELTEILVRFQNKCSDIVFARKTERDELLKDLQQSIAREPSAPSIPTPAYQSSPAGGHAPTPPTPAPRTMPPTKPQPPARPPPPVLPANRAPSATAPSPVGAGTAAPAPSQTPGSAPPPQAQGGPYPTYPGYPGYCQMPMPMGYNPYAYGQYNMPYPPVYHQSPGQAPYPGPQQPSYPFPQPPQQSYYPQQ
Kind of assay: ITC; 300 to 500 μM CHMP4 construct injected into 30 to 50 μM ALIX1-868* Strep or Bro1 in the cell; 25°C; 20 mM sodium phosphate (pH 6.5), 1 mM TCEP, 2 mM EDTA; independent site binding model.

The target in assay [2] is T2, ALIX-Bro1 (Bro1 domain of ALIX) (UniProt Q8WUM4 3-392).
T2 construct: Bro1 domain of ALIX; residues up to 349 are spoken of
T2 sequence (looked up): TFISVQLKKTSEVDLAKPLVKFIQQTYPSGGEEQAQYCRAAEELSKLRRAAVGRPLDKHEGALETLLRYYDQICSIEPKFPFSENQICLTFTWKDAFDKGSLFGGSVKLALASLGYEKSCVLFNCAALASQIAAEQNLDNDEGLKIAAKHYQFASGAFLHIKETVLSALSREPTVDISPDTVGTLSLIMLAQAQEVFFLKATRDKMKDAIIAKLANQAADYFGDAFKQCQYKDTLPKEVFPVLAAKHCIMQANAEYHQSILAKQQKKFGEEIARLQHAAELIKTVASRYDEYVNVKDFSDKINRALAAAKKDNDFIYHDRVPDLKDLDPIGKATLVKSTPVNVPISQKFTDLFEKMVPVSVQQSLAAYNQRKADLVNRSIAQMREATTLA
Described as above.

Assay [3] deals with T1, ALIX1−868∗^Strep (full-length ALIX with …). Kind of assay: NMR titration; 30 μM 15N/2H-labeled CHMP4 construct with 90 μM unlabeled ALIX1-868* Strep; cross-peak heights; 30°C, 20 mM sodium phosphate (pH 6.5), 1 mM TCEP, 2 mM EDTA.
For assay [4] the target is unchanged. The experiment in a line: ITC; as the other ITC but with 150 mM NaCl; CHMP4C construct injected into ALIX1-868* Strep; 25°C; for the AAA mutant 1500 μM into 300 μM ALIX.

The results in this text go back to article PMC10348681, “Reversible phase separation of ESCRT protein ALIX through tyrosine phosphorylation” (Science Advances, 2023).

B1: CHMP4B121−224^S184C (domain or fragment, UniProt Q9H444 121-224, looked up)
chain: DNMDIDKVDELMQDIADQQELAEEISTAISKPVGFGEEFDEDELMAELEELEQEELDKNLLEICGPETVPLPNVPSIALPSKPAKKKEEEDDDMKELENWAGSM
notes: codon-optimized synthetic gene; Monomeric by AUC; also called charged multivesicular body protein 4B C-terminal fragment; not shown: GB1, N-terminal, cleaved
Take B1: in assay [1], the affinity, expressed as Kd, was 900 ± 100 nM and the stoichiometry N (commonly a count of units in the complex or per binding partner) is roughly 1. Also, the Kd (commonly the equilibrium constant for the complex coming apart) in assay [2] turned out to be 1000 ± 200 nM.

B2: CHMP4C121−233^S191C,AAA (domain or fragment, UniProt Q96CF2 121-233, looked up)
chain: ENMDLNKIDDLMQEITEQQDIAQEISEAFSQRVGFGDDFDEDELMAELEELEQEELNKKMTNIRLPNVPSCSLPAQPNRKPGMSSTARRSRAASSQRAEEEDDDAKQAAAAAT
notes: codon-optimized synthetic gene; also called CHMP4C with three alanine substitutions in its α6 motif (I225A, L228A, W231A); not shown: GB1, N-terminal, cleaved
With B2, the binding result in assay [3] is “binds”.

B3: CHMP4C121−233^S191C (domain or fragment, UniProt Q96CF2 121-233, looked up)
chain: ENMDLNKIDDLMQEITEQQDIAQEISEAFSQRVGFGDDFDEDELMAELEELEQEELNKKMTNIRLPNVPSCSLPAQPNRKPGMSSTARRSRAASSQRAEEEDDDIKQLAAWAT
notes: codon-optimized synthetic gene; Monomeric by AUC; also called charged multivesicular body protein 4C C-terminal fragment; not shown: GB1, N-terminal, cleaved
With B3, the figures for the Kd in assay [1], in assay [2] and in assay [4] were 600 ± 100 nM, 900 ± 100 nM and 6100 ± 700 nM, respectively. The “stoichiometry N” value in assay [1] was roughly 1.
